Earlier results on three substances are cited in article PMC6070697.

What all share (test): kinetics
What all share (conditions): enzyme turning over with acetyl-CoA and an amine substrate

One series relates to Glu26.
The target in another series is Glu34 (UniProt position 34, HYYPEEPLTAG).
The target of the next series is Glu47 (UniProt position 82, FFFKDEPLNTF).

“Arylalkylamine N-acetyltransferase like 7 (Dm-AANATL7) (Drosophila melanogaster)”: in the series with Glu26, the pKa result is recorded as “approximately pH 7.5”.
Turning to “Agmatine N-acetyltransferase (Dm-AgmNAT; formerly Dm-AANATL8) (Drosophila melanogaster)”, the pKa result with Glu34 is “approximately pH 7.5”.
Turning to “Arylalkylamine N-acetyltransferase A (Dm-AANATA; dopamine N-acetyltransferase) (Drosophila melanogaster)”, the pKa entry in the series with Glu47 is “approximately pH 7.5”.
